According to PMC6399351, “Cationic Intrinsically Disordered Antimicrobial Peptides (CIDAMPs) Represent a New Paradigm of Innate Defense with a Potential for Novel Anti-Infectives” (Scientific Reports, 2019):
Like-named read-outs stand apart in the source and are kept apart here. Ends that are not written are not given here.

Key:
E. coli ATCC 25922 = assay: CO-ADD MIC, broth microdilution (CLSI); assay type: cell-based, Escherichia coli; settings: Mueller–Hinton broth, 5 × 10^5 CFU/mL, 18 h 37 °C, by CO-ADD
Text: (§1) They were defined as the lowest peptide
(§2) Further details of the screening

[1] = system: Acinetobacter baumannii ATCC 19606; settings: CFU assay, 10 mM NaP, pH 6.0, 0.25% glucose
[2] = system: Burkholderia cepacia ATCC 25416; settings: CFU assay, 10 mM NaP, pH 5.5, 0.25% glucose
[3] = system: Staphylococcus aureus ATCC 43300; settings: MRSA; CLSI, Mueller–Hinton broth, 5 × 10^5 CFU/mL, 18 h 37 °C, by CO-ADD
[4] = system: Pseudomonas aeruginosa ATCC 27853; assay: CO-ADD MIC, broth microdilution (CLSI); assay type: cell-based; settings: Mueller–Hinton broth, 5 × 10^5 CFU/mL, 18 h 37 °C, by CO-ADD
Text: as §1, §2

[5] = system: Acinetobacter baumannii ATCC 19606; assay: CO-ADD MIC, broth microdilution (CLSI); assay type: cell-based; settings: Mueller–Hinton broth, 5 × 10^5 CFU/mL, 18 h 37 °C, by CO-ADD
Text: as §1, §2

E. coli ATCC 11775 = assay: CFU assay of antimicrobial activity; assay type: cell-based, Escherichia coli; settings: 10 mM NaP
Method: (§3) All purified peptides and recombinant proteins were applied using a colony forming unit (CFU) assay in different media. Bacteria were grown to early log-phase in BHI, washed either with 10 mM Na-P, pH 7.4/1% TSB or pH 5.5/1% TSB, or pH 5.5 without TSB or BHI, and adjusted to a concentration of 10^4–10^5 colony forming units (CFU)/ml. For cell number control, 100 µl aliquots were diluted 1:10, 1:100 and 1:1000 and plated in duplicates on BHI agar plates. To 100 µl aliquots of the bacteria, suspended in the respective medium (10 mM Na-P buffer pH 7,0–7,4/ 1% (w/v) TSB; 10 mM Na-P buffer pH 5,5/ 1% (w/v) TSB; 10 mM Na-P buffer pH 7,0–7,4/ 1% (w/v) TSB pH 7,0–7,4/ 0,25% (w/v) glucose; 10 mM Na-P buffer pH 5,5/ 0,25% (w/v) glucose, respectively), 10 µl of a solution of the peptide or protein (two-fold dilutions, from 300 µg/ml or 150 µg/ml down to 19 ng/ml), dissolved in 0.01% (v/v) acetic acid, were added.
(§4) Then bacteria were incubated for 2 h at ambient temperature, if not otherwise stated. 10 µl of 0.01% (v/v) acetic acid, added to 100 µl aliquots of the bacteria in the respective medium, served as negative control. From each test, 1:10 and 1:100 dilutions were generated and plated as duplicates of 100 µl aliquots on BHI agar plates. After 16 h incubation at 37 °C, CFU were counted using a colony counter (Bio Kobe, Japan) and expressed as mean of the duplicate estimation to achieve a complete dose-response curve. All experiments were performed at serial dilutions in a concentration range of 100 µg/mL −25 ng/mL for recombinant HRNR fragments and 300 or 150 µg/mL–19 ng/mL for synthetic peptides.

P. aeruginosa ATCC 10145 = settings: CFU assay
S. aureus ATCC 6538 = settings: CFU assay, 10 mM NaP, pH 5.5, 0.25% glucose
[6] = system: Klebsiella pneumonia ATCC 700603; settings: MDR strain; CLSI, Mueller–Hinton broth, 5 × 10^5 CFU/mL, 18 h 37 °C, by CO-ADD
[7] = system: Candida albicans ATCC 90028; assay: CO-ADD MIC, antifungal assay (CLSI); assay type: cell-based; settings: Yeast Nitrogen Base broth, 24 h 35 °C, by CO-ADD
Method: (§5) Fungi strains were cultured for 3 days on Yeast Extract-Peptone Dextrose (YPD) agar at 30 °C. A yeast suspension of 1 × 10^6 to 5 × 10^6 cells/mL (as determined by OD530) was prepared from five colonies. These stock suspensions were diluted with Yeast Nitrogen Base (YNB) broth to a final concentration of 2.5 × 10^3 CFU/mL. […] Plates were covered and incubated at 35 °C for 24 h without shaking.

[8] = system: Cryptococcus neoformans ATCC 208821; assay: CO-ADD MIC, antifungal assay (CLSI); assay type: cell-based; settings: Yeast Nitrogen Base broth, 24 h 35 °C, by CO-ADD
Method: as §5

[9] = system: Streptococcus pneumoniae ATCC 33400; assay: CFU assay of antimicrobial activity; assay type: cell-based; settings: 10 mM NaP, pH 6.5, 0.25% glucose
Method: as §3, with “[…];” for “10 mM Na-P buffer pH 5,5/ 1% (w/v) TSB;”
as §4

[10] = system: Streptococcus pyogenes ATCC 12344; assay: CFU assay of antimicrobial activity; assay type: cell-based; settings: 10 mM NaP, pH 6.0, 0.25% glucose
Method: as §3, with “[…];” for “10 mM Na-P buffer pH 5,5/ 1% (w/v) TSB;”
as §4

[11] = system: Enterococcus faecium DSM 2146; settings: CFU assay, 10 mM NaP, pH 5.5, 0.25% glucose
C. albicans ATCC 24433 = assay: CFU assay of antimicrobial activity; assay type: cell-based, Candida albicans; settings: 10 mM NaP
Method: Bacteria were cultivated in either brain heart infusion medium (BHI), lysogeny broth (LB) or tryptic soy broth (TSB)[88]. If not otherwise stated, bacteria were incubated under shaking conditions (37 °C at 170 rpm) or as indicated on the ATCC- or DSM-data sheets. Candida albicans was cultured for 3 days on Yeast Extract-Peptone Dextrose (YPD) agar at 30 °C and yeast suspensions at appropriate density were treated with CIDAMPs as indicated.
as §3, §4

[12] = system: Proteus mirabilis ATCC 21100; settings: CFU assay, 10 mM NaP, pH 6.0, 0.25% glucose
trypsin = assay type: in vitro ADME; settings: for digestion by trypsin: 500 ng, 0.7 nM protease, pH 7.5, 15 h, Western blot
Text: (§6) All data shown are representatives (n = 3).
(§7) Lane 16 (“without protease”)
(§8) Table 1) have been directly applied. Note the presence of multiple bands, which originate
(§9) from oligomeric HRNR-complexes12. Data shown are representatives (n=3).

Lys-C = target: T1, Lys-C (Lysobacter enzymogenes, UniProt Q7M135); assay: Protease sensitivity testing of HRNR; assay type: in vitro ADME; settings: n = 3
T1 construct: purchased Roche
Text: as §6
Thereafter samples were subjected to a
Data shown are representatives
as §7, §8, §9

collagenase = settings: 1 µg, 1 h 37 °C, SDS-PAGE, silver staining; at higher concentrations, n = 3
KLK1 = target: T2, KLK1 (Homo sapiens, UniProt P06870); assay: Protease sensitivity testing of HRNR; assay type: in vitro ADME; settings: 500 ng, 0.7 nM protease, pH 7.5, 15 h, Western blot, n = 3
T2 construct: purchased R&D
Method: as §7
(§10) Table 1) have been directly applied. Note the presence of multiple bands, which originate from oligomeric HRNR-complexes12. Data shown are representatives (n=3).
(§11) Supplementary Fi gur e 14 :
(§12) For SDS-PAGE analyses 250 ng of […]
(§13) manner, however in the absence of a protease. […]
(§14) have been directly applied. Note a marked decrease of PAD1-deiminated rHRNR2591-2684 electromobility (lane 16) relative to rHRNR2591-2684 (lane 17). D ata shown are represent a tives

KLK7 = target: T3, KLK7 (Homo sapiens, UniProt P49862); assay: Protease sensitivity testing of HRNR; assay type: in vitro ADME; settings: 500 ng, 0.7 nM protease, pH 7.5, 15 h, Western blot, n = 3
T3 construct: purchased R&D
Method: as §7, §10, §11, §12, §13, §14

thermolysin = thermolysin (Bacillus thermoproteolyticus, UniProt P00800); settings: 10 µg, 18 h 37 °C, 10 ng to 10 pg, SDS-PAGE and HRNR Western blot, n = 3
α-chymotrypsin = system: T4, α-chymotrypsin; assay: Protease sensitivity testing of HRNR; assay type: in vitro ADME, human; settings: 10 µg, 18 h 37 °C, 1 ng to 1 pg, SDS-PAGE and HRNR Western blot, n = 3
T4 construct: purchased Sigma
Text: as §6

enterokinase EKMax = target: T5, enterokinase EKMax (Bos taurus, UniProt P98072); assay: Protease sensitivity testing of HRNR; assay type: in vitro ADME; settings: 10 µg, 18 h 37 °C, 0,1 U to 0,0001 U, SDS-PAGE and HRNR Western blot, n = 3
T5 construct: purchased Invitrogen
Text: as §6

[13] = 10 mM NaP, pH 5.5, 0.25% glucose

T1 sequence (Q7M135 whole entry): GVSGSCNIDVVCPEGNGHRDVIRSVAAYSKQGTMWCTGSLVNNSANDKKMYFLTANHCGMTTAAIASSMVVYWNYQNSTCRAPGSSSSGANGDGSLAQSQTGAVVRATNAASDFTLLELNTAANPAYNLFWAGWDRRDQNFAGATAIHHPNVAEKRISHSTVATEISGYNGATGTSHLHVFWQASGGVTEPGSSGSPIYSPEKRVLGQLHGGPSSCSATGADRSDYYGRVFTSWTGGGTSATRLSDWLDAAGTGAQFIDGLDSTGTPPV
T2 sequence (P06870 25-262): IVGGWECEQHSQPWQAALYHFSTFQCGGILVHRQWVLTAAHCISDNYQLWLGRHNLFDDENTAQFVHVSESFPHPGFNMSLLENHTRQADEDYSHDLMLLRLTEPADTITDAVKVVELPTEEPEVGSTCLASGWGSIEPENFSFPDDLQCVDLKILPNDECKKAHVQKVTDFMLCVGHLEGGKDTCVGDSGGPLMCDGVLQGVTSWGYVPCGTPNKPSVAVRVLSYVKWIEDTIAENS
T4 sequence (P17538 34-164 limits assumed, other chains not shown): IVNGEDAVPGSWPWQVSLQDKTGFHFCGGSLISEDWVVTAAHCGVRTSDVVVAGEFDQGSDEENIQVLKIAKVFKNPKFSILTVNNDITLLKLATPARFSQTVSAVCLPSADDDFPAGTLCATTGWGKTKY
T4 sequence (P17538 167-263 limits assumed, other chains not shown): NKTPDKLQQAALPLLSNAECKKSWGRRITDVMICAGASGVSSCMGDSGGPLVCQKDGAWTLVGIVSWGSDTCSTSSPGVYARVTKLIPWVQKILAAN
Chain of thermolysin (P00800 233-548): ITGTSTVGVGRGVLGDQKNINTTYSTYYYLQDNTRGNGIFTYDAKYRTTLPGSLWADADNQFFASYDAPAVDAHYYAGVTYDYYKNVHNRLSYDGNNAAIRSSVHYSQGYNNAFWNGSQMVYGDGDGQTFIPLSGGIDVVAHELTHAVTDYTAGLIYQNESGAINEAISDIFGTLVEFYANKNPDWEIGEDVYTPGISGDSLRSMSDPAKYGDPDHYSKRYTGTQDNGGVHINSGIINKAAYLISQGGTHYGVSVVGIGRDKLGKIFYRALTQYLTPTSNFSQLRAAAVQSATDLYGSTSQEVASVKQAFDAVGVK
T3 sequence (P49862 30-253): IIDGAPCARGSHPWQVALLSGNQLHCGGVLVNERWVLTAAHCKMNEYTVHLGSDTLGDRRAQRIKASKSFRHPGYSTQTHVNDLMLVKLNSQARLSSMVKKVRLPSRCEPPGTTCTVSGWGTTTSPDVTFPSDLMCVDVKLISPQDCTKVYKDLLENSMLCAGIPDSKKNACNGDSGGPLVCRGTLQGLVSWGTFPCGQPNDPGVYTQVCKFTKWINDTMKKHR
T5 sequence (P98072 801-1035 limits assumed): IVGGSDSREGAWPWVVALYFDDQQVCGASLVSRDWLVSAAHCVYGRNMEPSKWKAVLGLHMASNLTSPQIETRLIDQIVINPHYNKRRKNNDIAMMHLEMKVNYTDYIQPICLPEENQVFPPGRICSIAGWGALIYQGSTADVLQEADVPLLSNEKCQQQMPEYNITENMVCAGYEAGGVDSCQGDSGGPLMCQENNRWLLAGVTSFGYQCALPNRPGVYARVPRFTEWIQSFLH

GRHGSGLGHSSSHGQHGSGSGR [HR 1-18]
Minimal inhibitory concentration (MIC) (E. coli ATCC 25922): >32 µg/mL | LD90 [1]: 1.18 µg/mL | LD90 [2]: >300 µg/mL | Minimal inhibitory concentration (MIC) [3]: >32 µg/mL | Minimal inhibitory concentration (MIC) [4]: >32 µg/mL | Minimal inhibitory concentration (MIC) [5]: >32 µg/mL | LD90 (E. coli ATCC 11775; pH 5.5, 1% TSB): >300 µg/mL | LD90 (P. aeruginosa ATCC 10145; [13]): 0.038 µg/mL | LD90 (P. aeruginosa ATCC 10145; 10 mM NaP, pH 5.5, 1% TSB): 0.15 µg/mL | LD90 (P. aeruginosa ATCC 10145; 10 mM NaP/0.25% glucose/pH 5.5, 1% TSB): 1.18 µg/mL | LD90 (P. aeruginosa ATCC 10145; 10 mM NaP/0.25% glucose/pH 5.5, 3% TSB): 37.5 µg/mL | LD90 (P. aeruginosa ATCC 10145; 10 mM NaP/0.25% glucose/pH 5.5, 10% TSB): > 300 µg/mL | LD90 (S. aureus ATCC 6538): >300 µg/mL | Minimal inhibitory concentration (MIC) [6]: >32 µg/mL | Minimal inhibitory concentration (MIC) [7]: >32 µg/mL | Minimal inhibitory concentration (MIC) [8]: >32 µg/mL | LD90 [9]: >300 µg/mL | LD90 [10]: >300 µg/mL | LD90 [11]: 150 µg/mL | LD90 (C. albicans ATCC 24433; pH 5.5, 0.25% glucose): 18.8 µg/mL | LD90 (C. albicans ATCC 24433; pH 5.5, 1% TSB): 150 µg/mL | LD90 [12]: >300 µg/mL

B1: rHRNR2591–2684: recombinant HRNR fragment (protein, UniProt Q86YZ3 2591-2684, looked up, fragment)
chain: SQHGSGSGHSSGYGQHGSRSGQSSRGERHGSSSGSSSHYGQHGSGSRQSSGHGRQGSGSGQSPSRGRHGSGLGHSSSHGQHGSGSGRSSSRGPY
LD90 (E. coli ATCC 11775; pH 5.5, 0.25% glucose): 0.2 µg/mL | LD100 (E. coli ATCC 11775; pH 5.5, 0.25% glucose): >100 µg/mL | LD90 (P. aeruginosa ATCC 10145; [13]): 0.025 µg/mL | LD100 (P. aeruginosa ATCC 10145; [13]): 0.1 µg/mL | digestion by trypsin (trypsin; n = 3): digest | digestion by Lys C (Lys-C; 1 µg, 1 h 37 °C, SDS-PAGE, silver staining, at higher concentrations): sensitivity | LD90 (C. albicans ATCC 24433; pH 5.5, 0.25% glucose): 0.39 µg/mL | LD100 (C. albicans ATCC 24433; pH 5.5, 0.25% glucose): 6.25 µg/mL | digestion by collagenase (collagenase): sensitivity

B2: PAD1-deiminated rHRNR2591-2684: Protein Arginine Deiminase 1 (PAD1)-deiminated rHRNR2591–2684, Arg citrullinated (protein, UniProt Q86YZ3 2591-2684, looked up, fragment)
chain: SQHGSGSGHSSGYGQHGSRSGQSSRGERHGSSSGSSSHYGQHGSGSRQSSGHGRQGSGSGQSPSRGRHGSGLGHSSSHGQHGSGSGRSSSRGPY
modifications: PAD1-deiminated, arginines citrullinated
notes: Protein Arginine Deiminase 1 (PAD1)-deiminated rHRNR2591–2684, Arg citrullinated
digestion by KLK1 (KLK1): digest | digestion by KLK7 (KLK7): digest | digestion by trypsin (trypsin; n = 3): digest | digestion by LysC (Lys-C; 500 ng, 0.7 nM protease, pH 7.5, 15 h, Western blot): digest

B3: rHRNR2576–2707: recombinant HRNR fragment (protein, UniProt Q86YZ3 2576-2707, looked up, fragment)
chain: GFGHHESSSGQSSSYSQHGSGSGHSSGYGQHGSRSGQSSRGERHGSSSGSSSHYGQHGSGSRQSSGHGRQGSGSGQSPSRGRHGSGLGHSSSHGQHGSGSGRSSSRGPYESRLGHSSVFGQHESGSGHSSAY
sensitivity towards thermolysin (thermolysin): highly sensitive | sensitivity towards α-chymotrypsin (α-chymotrypsin): highly sensitive | sensitivity towards enterokinase EKMax (enterokinase EKMax): highly sensitive | LD90 (E. coli ATCC 11775; pH 5.5, 0.25% glucose): 0.55 µg/mL | LD100 (E. coli ATCC 11775; pH 5.5, 0.25% glucose): >100 µg/mL | LD90 (P. aeruginosa ATCC 10145; [13]): 0.035 µg/mL | LD100 (P. aeruginosa ATCC 10145; [13]): 0.275 µg/mL | sensitivity towards trypsin (trypsin; 10 µg, 18 h 37 °C, 100 pg to 0,1 pg trypsin (not modified), SDS-PAGE and HRNR Western blot, n = 3): highly sensitive | amount of unmodified trypsin that digests (trypsin; 10 µg, 18 h 37 °C, SDS-PAGE and HRNR Western blot): 1 pg | sensitivity towards Lys-C (Lys-C; 10 µg, 18 h 37 °C, 10 ng to 10 pg, SDS-PAGE and HRNR Western blot): highly sensitive | LD90 (C. albicans ATCC 24433; pH 5.5, 0.25% glucose): 0.55 µg/mL | LD100 (C. albicans ATCC 24433; pH 5.5, 0.25% glucose): >140 µg/mL
